The source of these data is patent publication US20250155441A1.

Assay [1] concerns the target α-fetoprotein (AFP-L1), the non-fucosylated variant of AFP that should not react with Lens culinaris agglutinin A (human) (UniProt P02771). As to the kind of experiment: Elecsys ECL immunoassay, biotinylated protein 7 nM without pretreatment, antibody 1 µg/mL, ruthenylated anti-rabbit Fc, streptavidin beads (PBS blank 570).
Assay [2] shares this target. As to the kind of experiment: Elecsys ECL immunoassay, biotinylated protein 7 nM without pretreatment, antibody 1 µg/mL, ruthenylated anti-rabbit Fc, streptavidin beads (PBS blank 580).

Chain of α-fetoprotein (AFP-L1), the non-fucosylated variant of AFP that should not react with Lens culinaris agglutinin A (human) (P02771 19-609 limits assumed, change not shown): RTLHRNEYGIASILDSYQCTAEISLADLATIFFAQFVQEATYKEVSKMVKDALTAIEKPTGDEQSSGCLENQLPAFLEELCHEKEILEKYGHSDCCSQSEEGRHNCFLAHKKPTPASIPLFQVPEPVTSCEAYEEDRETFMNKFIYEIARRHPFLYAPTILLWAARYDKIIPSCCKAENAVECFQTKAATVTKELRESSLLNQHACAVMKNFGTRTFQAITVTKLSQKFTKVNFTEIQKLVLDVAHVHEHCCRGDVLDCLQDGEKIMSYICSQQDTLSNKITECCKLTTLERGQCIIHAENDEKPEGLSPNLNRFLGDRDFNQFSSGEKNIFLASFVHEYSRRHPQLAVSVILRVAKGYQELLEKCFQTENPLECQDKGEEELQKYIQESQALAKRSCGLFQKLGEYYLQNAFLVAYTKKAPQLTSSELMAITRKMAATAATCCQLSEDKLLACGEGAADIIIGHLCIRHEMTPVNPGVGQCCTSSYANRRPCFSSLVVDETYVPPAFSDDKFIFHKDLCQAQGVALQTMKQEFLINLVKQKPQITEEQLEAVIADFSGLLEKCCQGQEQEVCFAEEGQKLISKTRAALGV

B1: mAb<AFP-L3>rRb-3C5-IgG (antibody, V domains shown)
VH: QSVEESGGRLVAPGTPLTLTCTVSGIDLSTYGMGWVRQAPGKGLEYIGIIDSGSTYYANWAKGRFTISKTSTTVDLKMTSLTTEDTATYFCARDRDPSSSGYYFKMWGPGTLVTVSL
VL: ALVMTQTPSSVSAAVGGTVTINCQASQSIGSYLAWYQQKPGQPPRLLIYGASNLESGVPSRFKGSGSGTEFTLTISDLECDDAATYYCQTAFYIFSSDNAFGGGTEVVVK
B1: the Counts in assay [1] amounted to 724 counts.

B2: mAb<AFP-L3>rRb-19B12-IgG (antibody, V domains shown)
VH: QSVEESGGRLVAPGTPLTLTCTVSGIDLSTYGMGWVRQAPGKGLEWIGIIGDNGSTYYANWAKGRFTISKTSTTVDLKMTSLTTEDTATYFCARDRDPSSSGYYFKMWGPGTLVTVSL
VL: ALVMTQTPSSVSAAVGGTVTINCQASQSISSYLAWYQQKPGQPPKLLIFGASNLESGVPSRFKGSGSGTEFTLTISDLECDDAATYYCQTAFYIFSSDNAFGGGTEVVVK
Consider B2, for which the Counts in assay [2] came out at 771 counts.
